We go through four molecules from patent US20230381183A1, “USE OF FOLIC ACID AND FOLATE MODIFICATION IN INDUCING B-CELL IMMUNE TOLERANCE AND TARGETING mIgM-POSITIVELY-EXPRESSED B-CELL LYMPHOMA” (FUDAN UNIVERSITY, priority 2020, published 2023).

One data set concerns splenic B lymphocytes. Briefly: Splenic B lymphocyte proliferation (CD86) and differentiation (GL-7) after three weekly injections. It is filed as in vivo, BALB/c female mice. The following applies: 10 μg/mouse tail vein, once a week, three times; one week after last administration. From the text:
(§1) The role of folate modification in mediating humoral immunosuppression and in reducing Anti-Drug Antibodies (ADA) of biomacromolecular drugs was investragated by using ovalbumin (OVA) as a model protein. OVA has strong immunogenicity and can induce the body to produce an immune response. Repeated stimulation of mice by OVA can cause the mice to produce lots of specific antibodies. The BALB/c female mice (5 weeks old) were randomly divided into FA-OVA (folate-OVA complex. Example 1) group, OVA group and physiological saline control group, with 6 mice in each group. FA-OVA, OVA and physiological saline were administered to mice via tail vein injection at a dose of 10 μg/mouse, once a week, three times in total.
One week after the last administration, the spleen lymphocyte suspension was collected and subjected to flow cytometry for analysis of proliferation and differentiation of splenic B lymphocytes. CD86 was used as a marker for cell proliferation, and GL-7 was used as germinal center B-cell surface marker. FIGS. 11a and 11b provide the CD86 flow sorting graphs and statistical analysis results of mouse spleen lymphocytes, respectively. FIGS. 11c and 11d provide the GL7 flow sorting graphs and statistical analysis results of mouse spleen lymphocytes, respectively.

In the next data set the test system is OVA-specific antibodies. Briefly: Serum OVA-specific antibodies by ELISA after three weekly injections. The settings on record: 10 μg/mouse tail vein, once a week, three times; one week after last administration. The class given is in vivo, BALB/c female mice.
Excerpt: as §1
One week after the last administration, the serum of the mice was collected and was measured by ELISA for the expression of OVA-specific antibodies in the serum. The results are shown in FIG. 12, wherein FIGS. 12a, 12b, 12c and 12d show the results of OVA-specific IgE, IgG, IgG1 and IgG2a, respectively.

Data set [1] concerns anaphylactic shock induced by OVA (allergen). Briefly: Prevention of anaphylactic shock: pretreatment, then OVA challenge. It is filed as in vivo. The following applies: pretreatment 10 μg OVA/mouse iv weekly x3, challenge 10 μg OVA. As to the method:
The BALB/c female mice (5 weeks old) were randomly divided into FA-OVA group, OVA group and physiological saline group, with 10 mice in each group. FA-OVA or OVA or physiological saline of an equal volume was administered to the mice via tail vein injection at a dose of 10 μg OVA/mouse, once a week for a total of three times. One week after the last administration, each mouse was injected with 10 μg OVA (allergen) via tail vein. Changes in body temperature of the mice within 2 hours after OVA stimulation were recorded (FIG. 18). In the meanwhile, the serum was collected from the mice, and was measured by ELISA for the expression of OVA-specific antibodies in the serum (FIG. 19). […] Therefore, folate modification can effectively prevent anaphylactic shock induced by allergens.

In data set [2] the test system is anaphylactic shock in OVA-sensitized mice. Briefly: Treatment of anaphylactic shock: OVA-sensitized mice treated, then OVA challenge. The class given is in vivo, BALB/c female mice. The settings on record: 4 μg/mouse iv every two days x3, challenge 25 μg OVA. As to the method:
The BALB/c female mice (5 weeks old) were subcutaneously injected with 10 μg OVA for sensitization, once a week, three times in total. One week after the last sensitization, the OVA-sensitized mice were injected with FA-OVA, OVA and physiological saline via tail vein at a dose of 4 μg/mouse, once every two days for three times in total. After the last administration, the mice were injected with 25 μg OVA (allergen) via tail vein. Changes in body temperature of the mice within 2 hours after the injection were recorded (FIG. 20). In the meanwhile, the serum was collected from the mice and was measured by ELISA for the level of the OVA-specific antibodies in the serum (FIG. 21). The mice without OVA sensitization but stimulated by tail vein injection of OVA served as the Naïve control group.

A short description of data set [3]: Water solubility (observation on preparation). The class given is physicochemical.
Data set [4] in a line: Blood routine analysis one week after last administration. It is filed as in vivo, BALB/c female mice. The settings on record: 10 μg/mouse tail vein weekly x3.
Excerpt: as §1
In addition, the whole blood of the mice was collected one week after the last administration for blood routine analysis.

On to “FA-OVA: folate-modified ovalbumin complex, EDC coupling of folic acid to OVA”, for which the “proliferation of B-cell (CD86) and differentiation into germinal center B-cell (GL-7)” value in the data set on splenic B lymphocytes is listed as “significantly inhibited”. The “expression of OVA-specific antibodies in the serum (IgE, IgG, IgG1, IgG2a)” value with OVA-specific antibodies is “significantly inhibited”. Further, in data set [1], the “body temperature within 2 hours after OVA stimulation” value is on record as “did not change significantly” and the “serum OVA-specific antibodies (IgE, IgG1, IgG2a) after challenge” value is on record as “substantially comparable to the physiological saline group”. Also, in data set [2], the “effect of treatment on anaphylaxis (body temperature curve)” value was “desensitizing effect”; the “expressions of OVA-specific antibodies IgE, IgG1 and IgC2a in serum” value was “comparable to those in the physiological saline group and significantly decreased compared with those in the OVA group”; the “time for body temperature to return to normal after OVA challenge” value was not above 2 h.

As for “OVA: ovalbumin, model protein and allergen [reference compound]”, in the data set with splenic B lymphocytes, the “proliferation of B-cell (CD86) and differentiation into germinal center B-cell (GL-7)” value was “proliferated significantly and differentiated into the germinal center B-cell”. In addition, the “expression of OVA-specific antibodies in the serum (IgE, IgG, IgG1, IgG2a)” value in the data set with OVA-specific antibodies was “a large amount of OVA-specific antibodies”. In data set [1], the “body temperature within 2 hours after OVA stimulation” value is reported as “dropped significantly” and the “serum OVA-specific antibodies (IgE, IgG1, IgG2a) after challenge” value is “a large number of OVA-specific antibodies”.

B1: FA-OVA: folate-modified ovalbumin complex, EDC coupling of folic acid to OVA (conjugate, UniProt P01012 2-386, looked up)
Ovalbumin: GSIGAASMEFCFDVFKELKVHHANENIFYCPIAIMSALAMVYLGAKDSTRTQINKVVRFDKLPGFGDSIEAQCGTSVNVHSSLRDILNQITKPNDVYSFSLASRLYAEERYPILPEYLQCVKELYRGGLEPINFQTAADQARELINSWVESQTNGIIRNVLQPSSVDSQTAMVLVNAIVFKGLWEKAFKDEDTQAMPFRVTEQESKPVQMMYQIGLFRVASMASEKMKILELPFASGTMSMLVLLPDEVSGLEQLESIINFEKLTEWTSSNVMEERKIKVYLPRMKMEEKYNLTSVLMAMGITDVFSSSANLSGISSAESLKISQAVHAAHAEINEAGREVVGSAEAGVDAASVSEEFRADHPFLFCIKHIATNAVLFFGRCVSP
modifications: folate via EDC coupling
On to B1, for which the water solubility result in data set [3] is on record as “easily soluble in water”. In addition, in data set [4], the BASO is 0 10*9/L, the HCT was 49.83 ± 4.53%, the HGB amounted to 161.50 ± 9.26 g/L and the LYMPH is listed as 2.78 ± 0.19 10*9/L. Also, in data set [4], the MCH was 16.28 ± 0.59 pg, the MCHC is recorded as 325.00 ± 12.35 g/L, the MCV is 50.075 ± 1.37 fL and the MONO is 0.035 ± 0.0058 10*9/L. Moreover, in data set [4], the MPV amounted to 7.05 ± 0.058 fL, the NEYT was 0.94 ± 0.23 10*9/L, the NRBC is given as 0.015 ± 0.013 10*9/L and the P-LCR is listed as 4.35 ± 1.01%. In addition, in data set [4], the PCT is reported as 0.41 ± 0.042%, the PDW was 5.58 ± 0.096 fL, the PLT was 586.50 ± 59.29 10*9/L and the RBC is given as 9.96 ± 0.89 10*12/L. Besides, in data set [4], the RDW-CV turned out to be 14.78 ± 0.50% and the WBC was 3.77 ± 0.42 10*9/L.

B2: OVA: ovalbumin, model protein and allergen (protein, UniProt P01012 2-386, looked up)
Ovalbumin: B1 Ovalbumin
As for B2, in data set [4], the BASO was 0 10*9/L, the HCT is 52.15 ± 5.97%, the HGB amounted to 169.25 ± 13.45 g/L and the LYMPH is listed as 2.58 ± 0.29 10*9/L. For the same molecule, in data set [4], the MCH is given as 16.08 ± 0.67 pg, the MCHC worked out at 325.75 ± 16.50 g/L, the MCV was 49.43 ± 0.43 fL and the MONO was 0.035 ± 0.017 10*9/L. In data set [4], the MPV is 7.10 ± 0.14 fL, the NEYT is 0.80 ± 0.21 10*9/L, the NRBC was 0.025 ± 0.013 10*9/L and the P-LCR came out at 5.15 ± 1.48%. In data set [4], the PCT is on record as 0.45 ± 0.016%, the PDW came out at 5.53 ± 0.15 fL, the PLT is reported as 635.00 ± 36.59 10*9/L and the RBC is 10.55 ± 1.13 10*12/L. Also, in data set [4], the RDW-CV stood at 14.63 ± 0.33% and the WBC is 3.43 ± 0.51 10*9/L. In addition, the “anaphylactic shock / death after OVA challenge” value in data set [1] (10 mice per group) is recorded as “two mice died”.
